US12390511B2, “Product and process for mucus viscosity normalization” (ORPRO THERAPEUTICS, INC., priority 2013, dated 2025)

Assay: Compaction assay to assess liquefaction of human CF sputum
Settings: 0.58 mM in diluent, n=6 per treatment; FIG. 2
Method: Compaction assay to assess liquefaction of human CF sputum. For all manipulations, CF sputum was handled under a microbiologic hood. rhTrx, r(Cys)hTrx or diluent alone (25 microliters), in relevant concentrations, was added to CF sputum (275 microliters) in a 1.5 ml Eppendorf conical tube and mixed by very brief vortexing. After incubation at 37 degrees C. for 30 min, samples were again briefly mixed and loaded into hematocrit tubes and sealed at both ends. After a 5 minute centrifugation in a hematocrit centrifuge, the percent solids (gel) and percent liquid was determined by direct linear measurement and expressed as percent liquid as follows: 100×liquid/(liquid+solids). For each condition, sputum from at least five different CF patients was measured in triplicate.
Comparison of efficacy with standard of care mucolytic agent (rhDNase). For these studies, relevant concentrations of rhTrx, r(Cys)hTrx and rhDNase were compared by incubation as described above. After 30 minutes, samples were assessed for changes in liquefaction of sputum (compaction assay) and alteration of viscoelasticity. In addition, synergy studies were performed. […] For each condition, sputum from at least five different CF patients were measured in triplicate. […]
Human CF sputum collection. Sputum was obtained from adult and pediatric patients with CF as determined by a health care provider. […]

B1: rhDNase: standard of care CF mucolytic Pulmozyme (rhDNase I; dornase alfa) (protein, UniProt P24855 23-282, looked up)
Deoxyribonuclease-1: LKIAAFNIQTFGETKMSNATLVSYIVQILSRYDIALVQEVRDSHLTAVGKLLDNLNQDAPDTYHYVVSEPLGRNSYKERYLFVYRPDQVSAVDSYYYDDGCEPCGNDTFNREPAIVRFFSRFTEVREFAIVPLHAAPGDAVAEIDALYDVYLDVQEKWGLEDVMLMGDFNAGCSYVRPSQWSSIRLWTSPTFQWLIPDSADTTATPTHCAYDRIVVAGMLLRGAVVPDSALPFNFQAAYGLSDQLAQAISDHYPVEVMLK
liquefaction of patient sputum / mucus-normalizing potency at equimolar concentrations: more potent than equimolar amounts of NAC
